According to PMC2192655 (The Journal of Cell Biology, 2000):

T1: Tlg2p (yeast (endogenous in the yeast strains), UniProt Q08144 1-397)
T1 sequence: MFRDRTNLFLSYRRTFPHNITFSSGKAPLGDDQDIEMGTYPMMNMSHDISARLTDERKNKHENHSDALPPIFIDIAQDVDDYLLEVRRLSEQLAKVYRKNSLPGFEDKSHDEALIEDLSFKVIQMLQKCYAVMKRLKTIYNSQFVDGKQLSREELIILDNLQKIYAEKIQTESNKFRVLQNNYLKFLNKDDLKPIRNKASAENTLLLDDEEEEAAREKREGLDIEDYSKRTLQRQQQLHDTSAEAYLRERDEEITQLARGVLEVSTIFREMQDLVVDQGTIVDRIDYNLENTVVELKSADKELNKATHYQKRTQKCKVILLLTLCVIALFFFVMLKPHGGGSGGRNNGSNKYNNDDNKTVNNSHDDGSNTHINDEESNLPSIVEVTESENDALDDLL


Tests used:
[1] = biological target: Sncp (Snc proteins, secretory vesicle SNARE) (yeast (endogenous in the yeast strains of Table 1)) (UniProt P31109); assay: co-IP
Sncp (Snc proteins, secretory vesicle SNARE) (yeast (endogenous in the yeast strains of Table 1)), sequence (P31109 whole entry): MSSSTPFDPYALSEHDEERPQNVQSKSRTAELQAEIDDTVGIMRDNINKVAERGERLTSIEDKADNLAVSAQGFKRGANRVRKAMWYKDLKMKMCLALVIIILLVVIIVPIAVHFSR

Tlg2p = biological target: T1, Tlg2p; assay: co-IP

Ssop (Sso proteins, plasma membrane SNARE), sequence (P32867 whole entry): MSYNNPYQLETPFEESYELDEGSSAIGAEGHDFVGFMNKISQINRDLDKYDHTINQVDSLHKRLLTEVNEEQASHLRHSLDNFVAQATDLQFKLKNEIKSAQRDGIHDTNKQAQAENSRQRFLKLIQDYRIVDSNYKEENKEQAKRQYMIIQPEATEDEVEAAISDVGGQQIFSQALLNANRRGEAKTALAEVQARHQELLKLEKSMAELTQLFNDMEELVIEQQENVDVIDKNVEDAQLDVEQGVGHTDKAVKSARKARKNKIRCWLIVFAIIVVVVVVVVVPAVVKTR

Molecule | percent of total Ssop coprecipitating with Sncp [1] [%] | fold less bound to Tlg2p than to Ssop (Tlg2p) [fold]
Ssop (Sso proteins, plasma membrane SNARE) (from UniProt P32867 1-290) (natural protein) | 0.7 | –
HA-Snc2p (COOH-terminally triple-HA-tagged Sncp) (natural protein) MSSSVPYDPYVPPEESNSGANPNSQNKTAALRQEIDDTVGIMRDNINKVAERGERLTSIEDKADNLAISAQGFKRGANRVRKQMWWKDLKMRMCLFLVVIILLVVIIVPIVVHFS | – | 10
